Measurements reported in the supplement of paper PMC10065799, “High-throughput profiling of sequence recognition by tyrosine kinases and SH2 domains using bacterial peptide display” (eLife, 2023).

Legend:
MERTK = MERTK (UniProt Q12866); experiment: phosphorylation enrichment, bacterial display (enrichment ratio); higher = better substrate or ligand; peptides without Tyr show the background
Fer (mouse) = experiment: as above
c-Abl (mouse) = experiment: as above
Jak2 = Jak2 (UniProt O60674); experiment: as above
EPHB2 = EPHB2 (UniProt P29323); experiment: as above
Hck = Hck (UniProt P08631); experiment: as above
EPHB1 = EPHB1 (UniProt P54762); experiment: as above
Fes = Fes (UniProt P07332); experiment: as above
FGFR1 = FGFR1 (UniProt P11362); experiment: as above
Fyn = Fyn (UniProt P06241); experiment: as above
FGFR3 = FGFR3 (UniProt P22607); experiment: as above
AncSZ = experiment: as above
c-Src = experiment: as above
c-Src SH2 = experiment: SH2 binding enrichment of the phosphorylated peptide, bacterial display (enrichment ratio); higher = better substrate or ligand; peptides without Tyr show the background
Grb2 SH2 = Grb2 SH2 (UniProt P62993); experiment: as above
SHP2-C SH2 = experiment: as above
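Wherever SH2 binding enrichment of the phosphorylated peptide, bacterial display is given: peptide library displayed on the E. coli surface as eCPX fusions, selected cells deep-sequenced, score is each peptide's frequency after selection divided by its frequency in the input.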
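Wherever phosphorylation enrichment, bacterial display is given: 11-residue human phosphosite peptides and single-mutation variants displayed on the E. coli surface, counted by deep sequencing, each peptide's frequency after selection divided by its frequency in the unselected input library; frequency after pTyr selection over input frequency; kinase dosed for 20-30% of maximal phosphorylation in three min.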

FGFR1, sequence (P11362 whole entry, looked up): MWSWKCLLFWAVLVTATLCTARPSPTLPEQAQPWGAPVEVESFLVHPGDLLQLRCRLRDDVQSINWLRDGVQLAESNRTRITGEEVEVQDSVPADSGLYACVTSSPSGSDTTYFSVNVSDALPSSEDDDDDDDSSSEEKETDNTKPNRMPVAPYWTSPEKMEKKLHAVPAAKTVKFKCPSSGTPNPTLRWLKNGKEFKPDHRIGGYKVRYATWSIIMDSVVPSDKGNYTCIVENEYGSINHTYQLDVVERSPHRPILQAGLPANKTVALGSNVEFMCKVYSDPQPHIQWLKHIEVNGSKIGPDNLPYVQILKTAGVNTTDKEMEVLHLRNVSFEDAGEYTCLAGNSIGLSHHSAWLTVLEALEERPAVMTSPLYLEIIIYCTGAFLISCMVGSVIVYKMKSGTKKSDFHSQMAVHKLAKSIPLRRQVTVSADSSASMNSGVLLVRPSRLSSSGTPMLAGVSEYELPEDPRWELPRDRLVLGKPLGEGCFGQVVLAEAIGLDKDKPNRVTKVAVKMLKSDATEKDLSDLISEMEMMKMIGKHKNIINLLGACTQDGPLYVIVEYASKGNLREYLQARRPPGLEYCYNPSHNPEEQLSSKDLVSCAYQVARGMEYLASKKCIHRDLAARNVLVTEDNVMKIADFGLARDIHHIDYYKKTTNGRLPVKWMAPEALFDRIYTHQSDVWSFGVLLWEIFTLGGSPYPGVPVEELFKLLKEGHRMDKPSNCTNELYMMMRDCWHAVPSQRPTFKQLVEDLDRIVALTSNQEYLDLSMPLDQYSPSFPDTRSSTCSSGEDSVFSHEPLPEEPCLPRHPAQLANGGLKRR
EPHB1, sequence (P54762 whole entry, looked up): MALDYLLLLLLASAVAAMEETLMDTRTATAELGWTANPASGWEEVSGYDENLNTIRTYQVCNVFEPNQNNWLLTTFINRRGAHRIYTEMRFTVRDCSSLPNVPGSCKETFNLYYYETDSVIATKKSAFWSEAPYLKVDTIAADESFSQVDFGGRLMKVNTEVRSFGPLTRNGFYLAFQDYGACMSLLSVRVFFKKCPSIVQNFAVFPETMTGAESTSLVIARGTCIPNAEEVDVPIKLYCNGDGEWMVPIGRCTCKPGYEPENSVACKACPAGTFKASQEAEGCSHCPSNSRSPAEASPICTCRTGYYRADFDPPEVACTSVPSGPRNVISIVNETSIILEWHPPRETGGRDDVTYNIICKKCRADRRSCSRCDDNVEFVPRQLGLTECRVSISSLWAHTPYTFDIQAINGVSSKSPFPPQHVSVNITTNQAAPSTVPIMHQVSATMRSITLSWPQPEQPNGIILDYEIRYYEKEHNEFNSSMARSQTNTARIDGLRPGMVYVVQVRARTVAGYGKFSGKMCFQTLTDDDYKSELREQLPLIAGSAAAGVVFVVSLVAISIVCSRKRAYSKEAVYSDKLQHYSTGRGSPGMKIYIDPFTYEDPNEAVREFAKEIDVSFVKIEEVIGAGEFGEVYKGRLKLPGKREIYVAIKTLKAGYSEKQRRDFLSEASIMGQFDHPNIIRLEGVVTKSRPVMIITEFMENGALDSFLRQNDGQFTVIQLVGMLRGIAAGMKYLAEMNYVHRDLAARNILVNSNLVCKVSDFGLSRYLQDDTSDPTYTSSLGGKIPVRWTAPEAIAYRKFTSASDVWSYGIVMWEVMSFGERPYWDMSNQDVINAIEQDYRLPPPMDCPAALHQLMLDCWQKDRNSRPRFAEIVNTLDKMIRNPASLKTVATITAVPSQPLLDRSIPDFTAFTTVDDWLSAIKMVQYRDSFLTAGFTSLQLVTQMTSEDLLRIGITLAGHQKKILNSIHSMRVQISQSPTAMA
MERTK, sequence (Q12866 whole entry, looked up): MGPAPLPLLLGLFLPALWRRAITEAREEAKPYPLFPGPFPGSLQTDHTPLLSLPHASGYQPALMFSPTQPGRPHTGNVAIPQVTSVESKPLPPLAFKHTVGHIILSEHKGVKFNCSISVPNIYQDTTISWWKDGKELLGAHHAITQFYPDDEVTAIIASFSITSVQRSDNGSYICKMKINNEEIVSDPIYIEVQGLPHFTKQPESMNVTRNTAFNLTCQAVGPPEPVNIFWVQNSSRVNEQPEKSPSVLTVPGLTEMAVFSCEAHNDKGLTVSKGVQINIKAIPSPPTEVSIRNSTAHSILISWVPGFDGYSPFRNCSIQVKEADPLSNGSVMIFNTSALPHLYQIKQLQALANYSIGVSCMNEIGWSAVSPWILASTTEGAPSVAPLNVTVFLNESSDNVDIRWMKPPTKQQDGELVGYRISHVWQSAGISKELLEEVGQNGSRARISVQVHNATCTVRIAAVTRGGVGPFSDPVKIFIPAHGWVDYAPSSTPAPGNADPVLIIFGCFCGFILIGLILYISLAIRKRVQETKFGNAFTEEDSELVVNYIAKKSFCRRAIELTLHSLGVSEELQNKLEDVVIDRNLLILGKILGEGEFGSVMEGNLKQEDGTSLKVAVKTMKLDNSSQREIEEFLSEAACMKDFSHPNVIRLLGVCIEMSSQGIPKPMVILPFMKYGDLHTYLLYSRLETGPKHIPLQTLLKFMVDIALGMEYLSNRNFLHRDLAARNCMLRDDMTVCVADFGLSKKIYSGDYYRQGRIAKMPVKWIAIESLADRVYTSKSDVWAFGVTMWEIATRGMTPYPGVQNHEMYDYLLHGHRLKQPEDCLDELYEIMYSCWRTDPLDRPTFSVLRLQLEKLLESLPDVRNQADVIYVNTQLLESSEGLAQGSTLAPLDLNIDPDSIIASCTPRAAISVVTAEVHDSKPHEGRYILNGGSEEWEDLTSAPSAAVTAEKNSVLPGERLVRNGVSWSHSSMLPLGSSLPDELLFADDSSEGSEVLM
Jak2, sequence (O60674 whole entry, looked up): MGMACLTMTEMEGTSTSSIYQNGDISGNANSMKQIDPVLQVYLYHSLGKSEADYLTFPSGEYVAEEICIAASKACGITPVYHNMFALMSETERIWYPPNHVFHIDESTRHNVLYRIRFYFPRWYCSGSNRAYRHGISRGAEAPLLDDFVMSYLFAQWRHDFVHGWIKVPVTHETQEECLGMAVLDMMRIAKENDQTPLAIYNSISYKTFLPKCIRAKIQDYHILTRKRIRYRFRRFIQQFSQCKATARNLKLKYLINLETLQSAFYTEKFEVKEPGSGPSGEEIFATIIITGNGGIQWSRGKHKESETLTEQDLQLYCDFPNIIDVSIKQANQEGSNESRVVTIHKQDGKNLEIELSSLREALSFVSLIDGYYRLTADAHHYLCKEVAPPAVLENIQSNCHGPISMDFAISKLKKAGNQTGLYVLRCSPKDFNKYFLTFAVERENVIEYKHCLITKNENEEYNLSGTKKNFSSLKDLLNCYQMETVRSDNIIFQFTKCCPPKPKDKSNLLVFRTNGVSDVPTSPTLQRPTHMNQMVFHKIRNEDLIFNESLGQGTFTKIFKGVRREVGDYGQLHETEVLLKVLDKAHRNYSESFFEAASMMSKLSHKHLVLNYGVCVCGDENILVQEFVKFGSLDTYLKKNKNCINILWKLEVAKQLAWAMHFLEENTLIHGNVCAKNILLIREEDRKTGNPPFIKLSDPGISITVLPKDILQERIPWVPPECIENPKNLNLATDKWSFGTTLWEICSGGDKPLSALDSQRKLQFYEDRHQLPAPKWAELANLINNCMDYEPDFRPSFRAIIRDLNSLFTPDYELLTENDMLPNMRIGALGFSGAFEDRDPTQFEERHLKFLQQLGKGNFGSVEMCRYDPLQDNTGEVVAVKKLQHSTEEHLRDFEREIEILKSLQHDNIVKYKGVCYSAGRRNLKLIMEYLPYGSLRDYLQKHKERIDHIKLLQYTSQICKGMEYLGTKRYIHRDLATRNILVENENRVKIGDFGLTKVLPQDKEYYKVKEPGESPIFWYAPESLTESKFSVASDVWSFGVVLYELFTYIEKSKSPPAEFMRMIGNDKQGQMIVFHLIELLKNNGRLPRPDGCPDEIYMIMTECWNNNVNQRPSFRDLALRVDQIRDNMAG
Fes, sequence (P07332 whole entry, looked up): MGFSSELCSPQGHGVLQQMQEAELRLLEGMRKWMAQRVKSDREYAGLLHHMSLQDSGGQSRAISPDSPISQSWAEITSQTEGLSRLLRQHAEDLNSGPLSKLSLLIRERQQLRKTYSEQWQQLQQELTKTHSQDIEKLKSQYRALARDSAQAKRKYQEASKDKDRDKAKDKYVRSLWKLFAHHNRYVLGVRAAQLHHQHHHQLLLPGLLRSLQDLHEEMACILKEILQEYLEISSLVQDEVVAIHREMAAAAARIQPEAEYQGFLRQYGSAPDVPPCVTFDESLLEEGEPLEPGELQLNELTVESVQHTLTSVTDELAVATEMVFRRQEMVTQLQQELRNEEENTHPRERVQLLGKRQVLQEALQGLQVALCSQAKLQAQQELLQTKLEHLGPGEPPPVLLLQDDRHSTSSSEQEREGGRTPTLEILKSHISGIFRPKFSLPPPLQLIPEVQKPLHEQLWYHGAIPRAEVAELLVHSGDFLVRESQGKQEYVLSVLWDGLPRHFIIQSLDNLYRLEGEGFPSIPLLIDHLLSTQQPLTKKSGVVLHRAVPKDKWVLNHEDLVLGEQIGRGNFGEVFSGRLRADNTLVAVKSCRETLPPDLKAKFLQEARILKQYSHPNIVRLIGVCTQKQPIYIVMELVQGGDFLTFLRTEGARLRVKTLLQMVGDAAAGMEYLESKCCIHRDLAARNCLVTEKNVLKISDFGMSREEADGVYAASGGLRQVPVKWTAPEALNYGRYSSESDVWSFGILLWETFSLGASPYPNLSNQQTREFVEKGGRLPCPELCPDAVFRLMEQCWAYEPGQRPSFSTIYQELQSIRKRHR

Row | SH2 binding enrichment (c-Src SH2) | SH2 binding enrichment (Grb2 SH2) | SH2 binding enrichment (SHP2-C SH2) | Sequence | phosphorylation enrichment (MERTK) | phosphorylation enrichment (Fer (mouse)) | phosphorylation enrichment (c-Abl (mouse)) | phosphorylation enrichment (Jak2) | phosphorylation enrichment (EPHB2) | phosphorylation enrichment (Hck) | phosphorylation enrichment (EPHB1) | phosphorylation enrichment (Fes) | phosphorylation enrichment (FGFR1) | phosphorylation enrichment (Fyn) | phosphorylation enrichment (FGFR3) | phosphorylation enrichment (AncSZ) | phosphorylation enrichment (c-Src)
1 | 0.708 | 0.736 | 0.548 | VHVEVYDPPSP | 0.775 | 0.758 | 0.949 | 1.27 | 0.572 | 0.833 | 0.749 | 1.3 | 0.672 | 0.794 | 0.826 | 1.65 | 0.719
2 | 0.555 | 0.838 | 0.704 | SLGKGYFDGGC [MC4R_Y35_S36Y_YF] | 0.389 | 0.35 | 0.842 | 0.889 | 0.529 | 0.429 | 0.452 | 0.924 | 0.434 | 0.377 | 0.611 | 0.922 | 0.481
3 | 0.483 | 0.804 | 0.739 | EAEALYQTTFQ [KRT73_Y325_K328T] | 4.9 | 11.9 | 2.1 | 1.13 | 1.53 | 4.59 | 1.27 | 1.27 | 0.644 | 3.38 | 0.972 | 1.98 | 4.32
4 | 0.477 | 0.788 | 0.619 | TNQVICLNPPI [DYNC1H1_Y970_Y970C] | 0.405 | 0.458 | 1.17 | 0.892 | 0.54 | 0.495 | 0.589 | 0.921 | 0.53 | 0.459 | 0.62 | 0.842 | 0.446
5 | 0.41 | 1.01 | 1.1 | YLGRNYLETLM [DUS3L_Y610_D609N] | 0.467 | 0.487 | 0.765 | 0.705 | 0.467 | 0.551 | 0.578 | 0.926 | 0.85 | 0.435 | 0.744 | 0.859 | 0.411
6 | 0.504 | 0.628 | 0.58 | RSSKRYLKTRS [LPL_Y329_M328R] | 1.24 | 0.852 | 1.03 | 0.725 | 1.11 | 0.894 | 0.919 | 1.17 | 1.03 | 0.937 | 1.11 | 1.4 | 0.713
7 | 0.579 | 0.799 | 0.698 | MALDRYVASCK [OR2B11_Y127_I130S] | 0.385 | 0.475 | 0.592 | 0.667 | 0.593 | 0.435 | 0.465 | 0.846 | 0.397 | 0.421 | 0.569 | 0.649 | 0.436
8 | 0.781 | 1.11 | 1.22 | FLEKFYKFGCR [NNMT_Y25_S29C_YF] | 0.432 | 0.546 | 0.884 | 0.961 | 0.506 | 0.443 | 0.522 | 1.12 | 0.631 | 0.512 | 0.696 | 0.934 | 0.446
9 | 0.835 | 1.01 | 1.23 | KYGTNYRVGSS [CPO_Y278] | 0.377 | 0.308 | 0.466 | 0.403 | 0.388 | 0.415 | 0.307 | 0.549 | 0.338 | 0.416 | 0.362 | 0.438 | 0.389
10 | 0.472 | 0.924 | 0.754 | TCFDKYTGNTY [FN1_Y101] | 0.345 | 0.534 | 0.717 | 1.01 | 0.63 | 0.516 | 0.519 | 1.16 | 0.463 | 0.511 | 0.648 | 1.3 | 0.584
11 | 0.98 | 1.04 | 1.12 | AIDVGYRHIDC [AKR1B1_Y40] | 0.366 | 0.44 | 0.629 | 0.635 | 0.531 | 0.457 | 0.419 | 0.844 | 0.476 | 0.466 | 0.622 | 0.637 | 0.411
12 | 0.589 | 0.852 | 0.975 | AEDEDYESVGA [SYKtide_2014] | 0.49 | 0.655 | 0.938 | 1.26 | 0.672 | 0.658 | 0.815 | 1.44 | 0.62 | 0.586 | 0.937 | 1.29 | 0.616
13 | 0.662 | 1.06 | 1.12 | FGVVGYLAIVF [RNF175_Y155_M159V] | 0.498 | 0.649 | 1.1 | 1.65 | 0.691 | 0.557 | 0.811 | 1.94 | 0.559 | 0.452 | 1.14 | 1.4 | 0.457
14 | 0.475 | 0.725 | 0.745 | TSSSRYFDEPV [ARFGAP3_Y356_S355R] | 0.391 | 0.417 | 0.447 | 0.61 | 0.395 | 0.495 | 0.508 | 0.839 | 0.597 | 0.511 | 0.688 | 0.792 | 0.399
15 | 0.467 | 0.881 | 0.631 | EKQLLYLENKT [FRK_Y132_S133L] | 0.337 | 0.405 | 0.41 | 0.672 | 0.44 | 0.459 | 0.567 | 0.985 | 0.398 | 0.467 | 0.589 | 0.712 | 0.356
16 | 0.559 | 1.11 | 0.878 | AKVKPYVNGTS [IBTK_Y1064] | 0.357 | 0.461 | 0.778 | 0.58 | 0.419 | 0.402 | 0.41 | 0.559 | 0.421 | 0.486 | 0.47 | 0.606 | 0.412
17 | 0.738 | 0.905 | 0.628 | DLAGRYFALRS [CKB_Y173_K177R_YF] | 0.476 | 0.36 | 0.554 | 0.761 | 0.371 | 0.4 | 0.419 | 0.579 | 0.447 | 0.38 | 0.394 | 0.587 | 0.347
18 | 1.23 | 1.1 | 0.954 | DPHECYAEVFD [ALB_Y394_K396E] | 0.626 | 0.617 | 0.817 | 1.01 | 0.807 | 0.944 | 0.871 | 1.55 | 1.2 | 0.753 | 1.25 | 1.32 | 0.775

Second part, the sequence before the results:

Row | Sequence | SH2 binding enrichment (c-Src SH2) | SH2 binding enrichment (Grb2 SH2) | SH2 binding enrichment (SHP2-C SH2) | phosphorylation enrichment (MERTK) | phosphorylation enrichment (Fer (mouse)) | phosphorylation enrichment (c-Abl (mouse)) | phosphorylation enrichment (Jak2) | phosphorylation enrichment (EPHB2) | phosphorylation enrichment (Hck) | phosphorylation enrichment (EPHB1) | phosphorylation enrichment (Fes) | phosphorylation enrichment (FGFR1) | phosphorylation enrichment (Fyn) | phosphorylation enrichment (FGFR3) | phosphorylation enrichment (AncSZ) | phosphorylation enrichment (c-Src)
19 | FFHKFYNKSED [RYR1_Y4864_R4861H] | 0.521 | 0.741 | 0.746 | 0.761 | 0.497 | 0.72 | 1.09 | 0.719 | 0.616 | 0.727 | 1.43 | 0.665 | 0.558 | 0.948 | 1 | 0.588
20 | TLSGIYQYIIA [FOXL2_Y81] | 1.49 | 1.22 | 1.87 | 9.32 | 13.9 | 4.23 | 1.09 | 12.2 | 7.53 | 12.9 | 5.1 | 11.1 | 6.05 | 8.01 | 1.54 | 4.81
21 | DFPGNYSGYDD [POLR1C_Y33] | 2.03 | 0.853 | 0.582 | 0.62 | 0.65 | 0.976 | 1.17 | 1.3 | 0.573 | 1.31 | 1.24 | 0.671 | 0.675 | 0.913 | 1.3 | 0.612
22 | MVSLFYGTALF [OR10C1_Y251] | 0.431 | 0.865 | 0.778 | 0.707 | 1.18 | 1.21 | 1.2 | 0.708 | 1.45 | 0.757 | 1.32 | 0.51 | 2.21 | 0.906 | 1.32 | 2.44
23 | VVCKNYAEAKD [ALB_Y343_D338V] | 0.647 | 0.852 | 0.807 | 0.457 | 0.5 | 0.785 | 0.875 | 0.581 | 0.519 | 0.515 | 1.1 | 0.482 | 0.512 | 0.693 | 0.932 | 0.477
24 | QFLMKYVWSAP [ABCD1_Y337_S342P] | 0.595 | 0.941 | 0.653 | 0.61 | 0.836 | 0.749 | 1.34 | 0.738 | 0.674 | 0.834 | 1.63 | 0.634 | 0.562 | 1.03 | 1.68 | 0.429
25 | HSDDDYDDPEL [CLNK_Y69] | 0.607 | 0.779 | 0.829 | 0.664 | 0.399 | 1.06 | 1.48 | 0.719 | 0.846 | 0.477 | 1.74 | 0.646 | 0.439 | 0.756 | 1.67 | 0.753
26 | DCAAIYGSEPE [AKR1A1_Y50_N52S] | 0.633 | 0.927 | 0.553 | 0.474 | 0.599 | 0.791 | 1.46 | 0.578 | 0.844 | 0.572 | 1.34 | 0.453 | 0.968 | 0.726 | 1.14 | 1.4
27 | AEVIWYKGDEE | 0.446 | 1.11 | 0.531 | 0.343 | 0.342 | 0.616 | 1.08 | 0.483 | 0.414 | 0.41 | 1.07 | 0.359 | 0.369 | 0.636 | 1.26 | 0.303
28 | EALDFYGEVRT [PTEN_Y155] | 0.458 | 0.635 | 0.643 | 0.37 | 0.707 | 0.825 | 1.51 | 0.65 | 0.918 | 0.829 | 1.39 | 0.501 | 1 | 0.872 | 1.23 | 1.01
29 | FRNKPYISWPS [CDC42BPB_Y1638_S1633Y_YF] | 1.6 | 1.99 | 1.77 | 0.417 | 0.366 | 0.36 | 0.424 | 0.33 | 0.414 | 0.255 | 0.552 | 0.408 | 0.345 | 0.427 | 0.457 | 0.445
30 | QSGGQYSSQGL [TNNI3K_Y788_A785G] | 0.577 | 0.787 | 0.446 | 0.4 | 0.401 | 0.676 | 0.835 | 0.434 | 0.72 | 0.506 | 0.779 | 0.486 | 0.488 | 0.854 | 0.655 | 0.495
31 | LMIEEYLTKEL [BAG3_Y457] | 0.514 | 0.981 | 1.16 | 0.872 | 0.629 | 1.42 | 2.83 | 0.993 | 0.685 | 0.911 | 2.04 | 0.759 | 0.723 | 1.14 | 2.23 | 1.18
32 | DKHGQYLIGHG [EPHB4_Y581] | 0.485 | 0.905 | 0.565 | 0.378 | 0.465 | 0.525 | 0.599 | 0.376 | 0.475 | 0.397 | 0.645 | 0.482 | 0.449 | 0.576 | 0.652 | 0.436
33 | SARFRYLVAEK [LDHB_Y173_M175V] | 0.516 | 0.811 | 0.615 | 0.327 | 0.447 | 0.569 | 0.607 | 0.486 | 0.458 | 0.351 | 0.635 | 0.424 | 0.415 | 0.425 | 0.698 | 0.449
